The record followed here is US20240116985A1, “STAPLED PEPTIDES AND METHODS THEREOF” (priority 2020, published 2024).

Assay [1] concerns the target B-cat-Halo (beta-catenin HaloTag NanoBRET construct expressed in HEK293 cells) (UniProt P35222). Description: NanoBRET in HEK293 cells, Bcat-Halo / TCF4-Luc (competitor TCF4-Luc); absolute IC50.
Assay [2] concerns the target full-length beta-Catenin (Uniprot ID P35222) (Homo sapiens (Human)) (UniProt P35222). The assay can be described thus: fluorescence polarization competition; full-length beta-catenin, competitor 5FAM-TCF4(10-53) probe.
Target sequence in this assay (P35222 2-781 limits assumed): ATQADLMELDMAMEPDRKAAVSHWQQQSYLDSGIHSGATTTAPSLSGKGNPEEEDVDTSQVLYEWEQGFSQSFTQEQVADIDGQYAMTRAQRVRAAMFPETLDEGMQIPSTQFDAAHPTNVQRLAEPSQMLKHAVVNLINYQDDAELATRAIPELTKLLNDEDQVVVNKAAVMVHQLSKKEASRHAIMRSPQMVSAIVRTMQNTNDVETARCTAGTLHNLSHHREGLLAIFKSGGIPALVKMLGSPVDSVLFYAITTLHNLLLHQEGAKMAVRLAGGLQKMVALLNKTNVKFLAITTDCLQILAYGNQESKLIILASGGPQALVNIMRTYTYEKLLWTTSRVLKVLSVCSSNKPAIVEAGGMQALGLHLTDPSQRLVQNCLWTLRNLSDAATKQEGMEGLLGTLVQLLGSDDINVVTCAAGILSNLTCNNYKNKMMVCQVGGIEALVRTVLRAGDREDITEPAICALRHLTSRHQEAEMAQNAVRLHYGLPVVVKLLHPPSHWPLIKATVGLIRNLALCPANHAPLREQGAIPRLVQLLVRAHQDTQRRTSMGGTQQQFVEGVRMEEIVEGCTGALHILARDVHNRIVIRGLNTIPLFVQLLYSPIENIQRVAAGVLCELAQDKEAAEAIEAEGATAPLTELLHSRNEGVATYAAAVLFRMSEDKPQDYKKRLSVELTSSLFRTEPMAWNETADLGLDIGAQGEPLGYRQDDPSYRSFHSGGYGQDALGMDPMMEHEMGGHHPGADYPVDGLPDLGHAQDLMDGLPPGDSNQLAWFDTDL
Assay [3] has the same target. The assay can be described thus: FP competition; full-length beta-catenin, competitor 5FAM-TCF4(10-53).
Target sequence in this assay (P35222 whole entry, one chain of several): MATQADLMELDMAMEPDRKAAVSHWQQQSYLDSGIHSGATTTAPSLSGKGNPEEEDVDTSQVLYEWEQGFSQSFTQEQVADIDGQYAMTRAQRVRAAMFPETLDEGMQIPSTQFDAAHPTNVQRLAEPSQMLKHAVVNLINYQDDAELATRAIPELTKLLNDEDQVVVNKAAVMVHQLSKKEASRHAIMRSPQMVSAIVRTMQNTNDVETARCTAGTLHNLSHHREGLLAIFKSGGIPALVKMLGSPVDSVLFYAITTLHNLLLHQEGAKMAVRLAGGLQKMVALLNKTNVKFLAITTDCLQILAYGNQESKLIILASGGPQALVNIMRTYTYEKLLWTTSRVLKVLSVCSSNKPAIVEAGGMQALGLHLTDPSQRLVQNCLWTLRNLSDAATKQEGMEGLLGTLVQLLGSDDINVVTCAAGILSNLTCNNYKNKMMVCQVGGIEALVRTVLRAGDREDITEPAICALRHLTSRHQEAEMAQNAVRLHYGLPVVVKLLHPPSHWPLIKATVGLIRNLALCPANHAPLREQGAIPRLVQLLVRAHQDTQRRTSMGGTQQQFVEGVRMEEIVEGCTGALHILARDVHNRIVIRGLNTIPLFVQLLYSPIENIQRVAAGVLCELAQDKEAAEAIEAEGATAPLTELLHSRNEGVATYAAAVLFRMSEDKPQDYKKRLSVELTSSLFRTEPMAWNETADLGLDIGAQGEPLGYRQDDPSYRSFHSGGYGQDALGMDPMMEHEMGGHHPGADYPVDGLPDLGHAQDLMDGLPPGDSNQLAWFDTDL
Assay [4] shares this target. Description: fluorescence polarization competition; full-length beta-catenin with 5FAM-TCF4(10-53) probe as competitor.
Target sequence in this assay (P35222 2-781 limits assumed): as the sequence (P35222 2-781 limits assumed) above
The next assay addresses Bcat-Halo (UniProt P35222). The assay can be described thus: NanoBRET Abs IC50, HEK293 cells, Bcat-Halo / TCF4-Luc.
In assay [5] the target is full-length beta-Catenin (Uniprot ID P35222) (Homo sapiens (Human)) (UniProt P35222). The assay can be described thus: fluorescence polarization competition against 5FAM-TCF4(10-53), full-length beta-catenin.
Target sequence in this assay (P35222 whole entry, one chain of several): as the sequence (P35222 whole entry, one chain of several) above
Assay [6] shares this target. Description: fluorescence polarization competition; full-length beta-catenin, 5FAM-TCF4 10-53 probe as competitor.
Target sequence in this assay (P35222 whole entry, one chain of several): as above

Starred links: 1 amine or outer side, 2 acyl side, 3 side chain; linkers in the order of their positions; H or OH if unused. Positions of bridges follow the written chain, without caps; N, C: chain ends. Non-standard residues stand in square brackets, D forms with d. Primed or numbered codes have the meaning given here. No end group written: not given here. *: point of attachment. PyrS2″ = (S)-3-amino-1-((pent-4-en-1-yloxy)carbonyl)pyrrolidine-3-carboxylic acid (stapling residue), C=CCCCOC(=O)N1CC[C@@](N[*:1])(C(=O)[*:2])C1; B5(4) = 2,2-bis(4-pentenyl)glycine = 2-amino-2-(pent-4-en-1-yl)hept-6-enoic acid (stitching residue), C=CCCCC(CCCC=C)(N[*:1])C(=O)[*:2]; B5(5) = 2,2-bis(4-pentenyl)glycine, 2-amino-2-(pent-4-en-1-yl)hept-6-enoic acid (stitching residue), C=CCCCC(CCCC=C)(N[*:1])C(=O)[*:2]; PyrS2 = (S)-3-amino-1-((pent-4-en-1-yloxy)carbonyl)pyrrolidine-3-carboxylic acid, C=CCCCOC(=O)N1CC[C@@](N[*:1])(C(=O)[*:2])C1; SPip2 = 4-amino-1-((pent-4-en-1-yloxy)carbonyl)piperidine-4-carboxylic acid, C=CCCCOC(=O)N1CCC(N[*:1])(C(=O)[*:2])CC1; SPip3 = 4-amino-1-((hex-5-en-1-yloxy)carbonyl)piperidine-4-carboxylic acid, C=CCCCCOC(=O)N1CCC(N[*:1])(C(=O)[*:2])CC1; SPip1 = 4-amino-1-((but-3-en-1-yloxy)carbonyl)piperidine-4-carboxylic acid, C=CCCOC(=O)N1CCC(N[*:1])(C(=O)[*:2])CC1; B5(25) = 2-amino-2-(pent-4-en-1-yl)hept-6-enoic acid (stitching residue), C=CCCCC(CCCC=C)(N[*:1])C(=O)[*:2]; B5 = 2-amino-2-(pent-4-en-1-yl)hept-6-enoic acid, C=CCCCC(CCCC=C)(N[*:1])C(=O)[*:2]; NdiMeButC = N-terminal 4-(dimethylamino)butanoyl, CN(C)CCCC(=O)*; Phe(3-CF3) = N[C@@H](Cc1cccc(C(F)(F)F)c1)C(=O)O; Phe(4-CF3) = N[C@@H](Cc1ccc(C(F)(F)F)cc1)C(=O)O; Phe(3-COOH) = N[C@@H](Cc1cccc(C(=O)O)c1)C(=O)O; Phe(2-CF3) = N[C@@H](Cc1ccccc1C(F)(F)F)C(=O)O; Phe(2-Cl) = N[C@@H](Cc1ccccc1Cl)C(=O)O; Bta = N[C@@H](Cc1csc2ccccc12)C(=O)O; αAllylPro = C=CC[C@@]1(C(=O)O)CCCN1; hPhe = N[C@@H](CCc1ccccc1)C(=O)O; tBuAla = CC(C)(C)C[C@H](N)C(=O)O; 3Thi = N[C@@H](Cc1ccsc1)C(=O)O; R5 = C=CCCC[C@@](C)(N)C(=O)O; Octanoyl = CCCCCCCC(=O)*; Propioloyl = C#CC(=O)*; Aib = CC(C)(N)C(=O)O

Chain of B-cat-Halo (beta-catenin HaloTag NanoBRET construct expressed in HEK293 cells) (P35222 whole entry): as the sequence (P35222 whole entry, one chain of several) above
Chain of Bcat-Halo (P35222 whole entry): as the sequence (P35222 whole entry, one chain of several) above

With Ac-[αAllylPro]D[tBuAla][B5(5)]NT[Aib]AFN[PyrS2″][3Thi][Bta]N-NH2 (staple 1-4, 4-11) [I-2415], the IC50 in assay [1] was more than 20000 nM; in assay [2], 147 nM. On to Propioloyl-[αAllylPro]D[tBuAla][B5(5)]D[Phe(3-COOH)]AAFL[PyrS2″][Phe(2-Cl)][Bta]A-NH2 (staple 1-4, 4-11) [I-2403], for which the IC50 is more than 20000 nM in assay [1] and 12 nM in assay [2]. Molecule NdiMeButC-[αAllylPro]D[tBuAla][B5(4)]DDAAFS[PyrS2″]F[Bta]S-NH2 (staple 1-4, 4-11) [I-1354] came in with a concentration for a half-maximal effect (EC50) in assay [3] of 48 nM. Further, the IC50 in assay [4] was found to be 48 nM.

Turning to [αAllylPro]D[tBuAla][B5(4)]DDAAFF[PyrS2″][hPhe][Bta]Q-NH2 (staple 1-4, 4-11) [I-1351], the concentration giving a half-maximal response (EC50) in assay [3] was 258 nM. The same molecule showed a concentration for half-maximal inhibition (IC50) in assay [4] of 258 nM.

In the case of Ac-[αAllylPro]D[tBuAla][B5(4)]D[Phe(3-COOH)]QAFV[PyrS2″][3Thi][RbMe2NapA]A-NH2 (staple 1-4, 4-11) [I-2312], the IC50 came to 5200 nM in the assay with Bcat-Halo and 5 nM in assay [5]. For Ac-[αAllylPro]D[tBuAla][B5(5)]NT[Aib]AFT[PyrS2][3Thi][Bta]Q-NH2 (staple 1-4, 4-11) [I-2409], the IC50 in assay [1] amounted to 50000 nM; in assay [2], 397 nM.

B1: I-2586 (peptide)
peptide: Ac-[αAllylPro]D[tBuAla][B5]D[Phe(3-COOH)]QAFL[SPip2][Phe(2-CF3)][Bta]A-NH2
modifications: staple 1-4, 4-11; not fully specified; printed as Ac-PL3-Asp-Npg-B5-Asp-3COOHF-Gln-Ala-Phe-Leu-SPip2-2F3MeF-BztA-Ala-NH2; also: later-eluting staple isomer composition
B1 registered a half-maximal inhibitory concentration (IC50) in assay [6] of 345 nM.

B2: I-2591 (peptide)
peptide: Ac-[αAllylPro]D[tBuAla][B5]D[Phe(3-COOH)]QAFL[SPip1][3Thi][Bta]A-NH2
modifications: staple 1-4, 4-11; not fully specified; printed as Ac-PL3-Asp-Npg-B5-Asp-3COOHF-Gln-Ala-Phe-Leu-SPip1-3Thi-BztA-Ala-NH2
On to B2, for which, in assay [6], the IC50 was found to be 602 nM.

B3: I-2584 (peptide)
peptide: Ac-[αAllylPro]D[tBuAla][B5]D[Phe(3-COOH)]QAFL[SPip1][Phe(2-CF3)][Bta]A-NH2
modifications: staple 1-4, 4-11; not fully specified; printed as Ac-PL3-Asp-Npg-B5-Asp-3COOHF-Gln-Ala-Phe-Leu-SPip1-2F3MeF-BztA-Ala-NH2
Regarding B3, the 50% inhibitory concentration (IC50) in assay [6] was found to be 1840 nM. Consider Ac-[R5]AD[tBuAla][B5(25)]D[Phe(3-COOH)]AAFL[PyrS2″][Phe(2-CF3)][Bta]Q-NH2 (staple 1-5, 5-12 (inferred); also: staple -CH=CH- reduced to -CH2-CH2-) [I-2574], for which the IC50 in assay [6] came to 2960 nM.

For Ac-[αAllylPro]D[tBuAla][B5(5)]NT[Aib]AFH[PyrS2″][3Thi][Bta]Q-NH2 (staple 1-4, 4-11) [I-2410], the half-inhibitory concentration (IC50) is more than 20000 nM in assay [1] and 304 nM in assay [2].

B4: I-2575 (peptide)
peptide: Ac-P[R5]ED[tBuAla][B5(25)]D[Phe(3-COOH)]AAFL[PyrS2″][Phe(2-CF3)][Bta]Q-NH2
modifications: staple 6-13, 2-6 (inferred); not fully specified; printed as Ac-Pro-R5-Glu-Asp-Npg-B5-Asp-3COOHF-Ala-Ala-Phe-Leu-PyrS2-2F3MeF-BztA-Gln-NH2
For B4, the IC50 in assay [6] worked out at 8160 nM. Consider Ac-[αAllylPro]D[tBuAla][B5(5)]NT[Aib]AFR[PyrS2][3Thi][Bta]Q-NH2 (staple 1-4, 4-11) [I-2407], for which the IC50 in assay [1] was more than 20000 nM; in assay [2], 138 nM.

Turning to Ac-[αAllylPro]D[tBuAla][B5(5)]NT[Aib]AFN[PyrS2″][3Thi][Bta]H-NH2 (staple 1-4, 4-11) [I-2414], the IC50 in assay [1] is more than 20000 nM; in assay [2], 7 nM. For propiolyl-[αAllylPro]D[tBuAla][B5(5)]DDAAFQ[PyrS2][3Thi][Bta]H-NH2 (staple 1-4, 4-11) [I-2402] the same measures were more than 20000 nM and 16 nM.

Turning to Ac-[αAllylPro]D[tBuAla][B5(5)]D[Phe(3-COOH)]AAFL[PyrS2][Phe(2-CF3)][Bta]QAA-NH2 (staple 1-4, 4-11) [I-2399], the concentration for half-maximal inhibition (IC50) in assay [1] was determined as 2800 nM; in assay [2] it was 17 nM. In the case of Octanoyl-[αAllylPro]D[tBuAla][B5(4)]DDAAFS[PyrS2″]F[Bta]S-NH2 (staple 1-4, 4-11) [I-1355], the EC50 in assay [3] came to 213 nM. The same molecule showed a concentration for half-maximal inhibition (IC50) in assay [4] of 213 nM. For Ac-[αAllylPro]D[tBuAla][B5(5)]D[Phe(3-COOH)]AAFL[PyrS2][Phe(2-CF3)][Bta]QL[dL]-NH2 (staple 1-4, 4-11) [I-2396], the results for the 50% inhibitory concentration (IC50) in assay [1] and in assay [2] were 8300 nM and 187 nM, respectively.

B5: I-2585 (peptide)
peptide: Ac-[αAllylPro]D[tBuAla][B5]D[Phe(3-COOH)]QAFL[SPip2][Phe(2-CF3)][Bta]A-NH2
modifications: staple 1-4, 4-11; not fully specified; printed as Ac-PL3-Asp-Npg-B5-Asp-3COOHF-Gln-Ala-Phe-Leu-SPip2-2F3MeF-BztA-Ala-NH2; also: earlier-eluting staple isomer composition
Molecule B5 displayed a concentration for half-maximal inhibition (IC50) in assay [6] of 452 nM.

Regarding Ac-[αAllylPro]D[tBuAla][B5(5)]D[Phe(3-COOH)]AAFL[PyrS2][Phe(2-CF3)][Bta]QL[dT]-NH2 (staple 1-4, 4-11) [I-2397], the IC50 in assay [1] came to 7800 nM; in assay [2], 53 nM. For Ac-[αAllylPro]D[tBuAla][B5(5)]NT[Aib]AFN[PyrS2″][3Thi][Bta]T-NH2 (staple 1-4, 4-11) [I-2416] the same measures were more than 20000 nM and 133 nM. For Ac-[αAllylPro]D[tBuAla][B5(4)]DDAAF[Phe(3-CF3)][PyrS2][3Thi][Bta]Q-NH2 (staple 1-4, 4-11) [I-1364], in assay [3], the concentration for a half-maximal effect (EC50) was 9 nM. This molecule also yielded a half-inhibitory concentration (IC50) in assay [4] of 9 nM.

B6: I-2587 (peptide)
peptide: Ac-[αAllylPro]D[tBuAla][B5]D[Phe(3-COOH)]QAFL[SPip3][Phe(2-CF3)][Bta]A-NH2
modifications: staple 1-4, 4-11; not fully specified; printed as Ac-PL3-Asp-Npg-B5-Asp-3COOHF-Gln-Ala-Phe-Leu-SPip3-2F3MeF-BztA-Ala-NH2
As to B6, the concentration for half-maximal inhibition (IC50) in assay [6] is 273 nM. As to Ac-[αAllylPro]D[tBuAla][B5(5)]D[Phe(3-COOH)]AAFL[PyrS2][Phe(2-CF3)][Bta]QVA-NH2 (staple 1-4, 4-11) [I-2401], the IC50 in assay [1] turned out to be 4400 nM; in assay [2], 37 nM. For the molecule Ac-[αAllylPro]D[tBuAla][B5(4)]DDAAF[Phe(4-CF3)][PyrS2][3Thi][Bta]Q-NH2 (staple 1-4, 4-11) [I-1365], the EC50 in assay [3] turned out to be 9 nM. Moreover, the IC50 in assay [4] amounted to 9 nM. In the case of Ac-[αAllylPro]D[tBuAla][B5(4)]D[Phe(3-COOH)]QAFV[PyrS2″][3Thi][SbMe2NapA]A-NH2 (staple 1-4, 4-11) [I-2314], the IC50 was more than 20000 nM with Bcat-Halo and 48 nM in assay [5].

On to Ac-[αAllylPro]D[tBuAla][B5(5)]D[Phe(3-COOH)]AAFL[PyrS2][Phe(2-CF3)][Bta]QFA-NH2 (staple 1-4, 4-11) [I-2400], for which the IC50 in assay [1] was 2500 nM; in assay [2], 142 nM.
